Legend:
Experiment in all cases: purified protein
Settings in all cases: 0.25 mM NADPH, 50 mM sodium phosphate pH 7.0, 30 °C, reduction
purified protein [1] = substrate: O=CC(O)CO
purified protein [2] = substrate: CC(=O)C=O; type: biochemical, Zea mays
purified protein [3] = substrate: O=Cc1ccc([N+](=O)[O-])cc1; type: biochemical, Zea mays

B1: ZmAKR4C13 (Zea mays) (protein)
chain: MASAQAVGQGERGHFVLKSGHTIPAVGLGTWRAGSDTAHSVRTAIAEAGYRHVDTAAQYGVEKEVGRGLKAAMEGGINRKDLFVTSKLWCTELAPDRVRPALEKTLKDLQLDYLDLYLIHWPFRLKDGAHMPPEAGEVLEFDMEGVWREMEGLVKDGLVKDIGVCNYTVAKLNRLMRSANVPPAVCQMEMHPGWKNDRIFEACKKHGIHVTAYSPLGSSEKNLAHDPLVEKVANKLDKTPGQVLLRWALQRGTSVIPKSTRDERIKENIQVFGWEIPEEDFRALCGIKDEKRVLTGEELFVNKTHGPYKSATEVWDHED
notes: monomer
Purified protein [1]
  Km: 1460 ± 290 µM
  kcat: 18 s⁻¹
  kcat/Km: 12400 M⁻¹ s⁻¹
Purified protein [2]
  Km: 940 ± 80 µM
  kcat: 2.21 s⁻¹
  kcat/Km: 2350 M⁻¹ s⁻¹
Purified protein [3]
  Km: 100 ± 20 µM
  kcat: 0.65 s⁻¹
  kcat/Km: 6510 M⁻¹ s⁻¹

Source: publication PMC12302338, “Functional genomics and structural insights into maize aldo-keto reductase-4 family: Stress metabolism and substrate specificity in embryos” (The Journal of Biological Chemistry, 2025)
